Laboratory results from the supplement of paper PMC7125110.
± gives the standard error. This sample holds only a part of the variants without activity.

B1: glmS ribozyme (parent)
chain: AUAAAAGCGCCAGAACUACAGAAAUGUAGUUGACGAGGAGGAGGUUUAUCGAAUUUUCGGCGGAUGCCUCCAAA

Assays:
Settings in all cases: with glucosamine-6-phosphate
glucosamine-6-phosphate [1] = variants of: B1; assay: self-cleavage kobs at 40 uM GlcN6P; higher = faster cleavage; RNA array
In short: (§1)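 Barcoded ribozyme variants were transcribed in situ on sequenced MiSeq chips by E. coli RNA polymerase. At 37 °C, a hybridised Cy3 probe tracked them while glucosamine-6-phosphate (40 μM to 10 mM) in HEPES/KCl/Mg(OAc)2 buffer flowed in and tiles were imaged over ~14 h. Per-tile medians of signals normalised to baseline and to non-cleaving reference variants were fit to one- or two-exponential decays, giving kobs. kcat and KM came from weighted Michaelis–Menten fits across concentrations.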

glucosamine-6-phosphate [2] = variants of: B1; assay: self-cleavage kobs at 160 uM GlcN6P; higher = faster cleavage; RNA array
In short: as §1

glucosamine-6-phosphate [3] = variants of: B1; assay: self-cleavage kobs at 640 uM GlcN6P; higher = faster cleavage; RNA array
In short: as §1

glucosamine-6-phosphate [4] = variants of: B1; assay: self-cleavage kobs at 2500 uM GlcN6P; higher = faster cleavage; RNA array
In short: as §1

glucosamine-6-phosphate [5] = variants of: B1; assay: self-cleavage kobs at 10000 uM GlcN6P; higher = faster cleavage; RNA array
In short: as §1

With AUAAAAGCGCCAGGACUACAGAAAUGUAGUUGACGAGGAGGAGGUUUAUCGAGUUUUCGGCGGAUGCCUCCAAA the “self-cleavage kobs at 40 uM GlcN6P” value (glucosamine-6-phosphate [1]) was 0.00182 ± 0.00029 s⁻¹, the “self-cleavage kobs at 160 uM GlcN6P” value (glucosamine-6-phosphate [2]) was 0.00412 ± 0.00073 s⁻¹ and the “self-cleavage kobs at 640 uM GlcN6P” value (glucosamine-6-phosphate [3]) was 0.0226 ± 0.0043 s⁻¹. The “self-cleavage kobs at 2500 uM GlcN6P” value (glucosamine-6-phosphate [4]) was 0.0146 ± 0.0045 s⁻¹ and the “self-cleavage kobs at 10000 uM GlcN6P” value (glucosamine-6-phosphate [5]) was 0.0452 ± 0.013 s⁻¹.

With AUAAAAGCGGCAGAACUACAGAAAUGUAGUUGACGACGAGGAGGUUAAUCGAAUUUACGGCGGAUCCCUGCAAA the “self-cleavage kobs at 40 uM GlcN6P” value (glucosamine-6-phosphate [1]) was less than 1e-05 s⁻¹ and the “self-cleavage kobs at 10000 uM GlcN6P” value (glucosamine-6-phosphate [5]) was less than 1e-05 s⁻¹.

AUAAAAGCGGCAGAACUACAGAAAUGUAGUUGACGAGGAGGCGGUUUAUCGAAUUUUCGGCGGAUGCCUCCAAA was tested, and the “self-cleavage kobs at 40 uM GlcN6P” value (glucosamine-6-phosphate [1]) was less than 1e-05 s⁻¹.

With AUAAAAGGGCCAGAACUACAGAAAUGUAUUUGCCGAGGAGGAGGUUUAUCGAAUUUUCGGCGGAUGCAUCCAAA the “self-cleavage kobs at 40 uM GlcN6P” value (glucosamine-6-phosphate [1]) was less than 1e-05 s⁻¹, the “self-cleavage kobs at 640 uM GlcN6P” value (glucosamine-6-phosphate [3]) was less than 1e-05 s⁻¹ and the “self-cleavage kobs at 10000 uM GlcN6P” value (glucosamine-6-phosphate [5]) was less than 1e-05 s⁻¹.

With AUAAAAGCGCCAGAACUACAGAAAUGUAGUUGACGCGGAGCAGGUUUAUCGAAGUUUCGGCGGAUCCGUCCAAA the “self-cleavage kobs at 40 uM GlcN6P” value (glucosamine-6-phosphate [1]) was less than 1e-05 s⁻¹.

With AUAAAACCGCGAGAACUACAGAAAUGUAGUUGACGAGGAGGAGGUUUAUCAAAUUUUCGGCGGAUGCCUCCAAA the “self-cleavage kobs at 40 uM GlcN6P” value (glucosamine-6-phosphate [1]) was less than 1e-05 s⁻¹ and the “self-cleavage kobs at 10000 uM GlcN6P” value (glucosamine-6-phosphate [5]) was less than 1e-05 s⁻¹.

With AUAAAAGCGCCAGAACUACAGAAAUGUAGUUGAUGAGGAGGAGGAUUAUCGAAUUUUCGGCGGAUGCCUCCAAA the “self-cleavage kobs at 40 uM GlcN6P” value (glucosamine-6-phosphate [1]) was less than 1e-05 s⁻¹, the “self-cleavage kobs at 160 uM GlcN6P” value (glucosamine-6-phosphate [2]) was less than 1e-05 s⁻¹ and the “self-cleavage kobs at 640 uM GlcN6P” value (glucosamine-6-phosphate [3]) was less than 1e-05 s⁻¹. For the same variant, the “self-cleavage kobs at 2500 uM GlcN6P” value (glucosamine-6-phosphate [4]) was less than 1e-05 s⁻¹ and the “self-cleavage kobs at 10000 uM GlcN6P” value (glucosamine-6-phosphate [5]) was less than 1e-05 s⁻¹.

AUAAAAGCGCCAGCUCUACAGAAAUGUAGUUGACGAGGAGGAGGUUUAUCCAAUUUUCGGCGGAUGCCUCCAAA was tested, and the “self-cleavage kobs at 40 uM GlcN6P” value (glucosamine-6-phosphate [1]) was less than 1e-05 s⁻¹.

With AUAAAAGCGCCAGAACUACAGAAAUGUAGUUGACGUGGAGGAGAUUUAUCGAAUUUUCGGCGGAUGCCUCCAAA the “self-cleavage kobs at 40 uM GlcN6P” value (glucosamine-6-phosphate [1]) was less than 1e-05 s⁻¹, the “self-cleavage kobs at 160 uM GlcN6P” value (glucosamine-6-phosphate [2]) was less than 1e-05 s⁻¹ and the “self-cleavage kobs at 640 uM GlcN6P” value (glucosamine-6-phosphate [3]) was less than 1e-05 s⁻¹. For the same variant, the “self-cleavage kobs at 2500 uM GlcN6P” value (glucosamine-6-phosphate [4]) was less than 1e-05 s⁻¹ and the “self-cleavage kobs at 10000 uM GlcN6P” value (glucosamine-6-phosphate [5]) was less than 1e-05 s⁻¹.

AUAAAAGCGCCAGAAAUACAGAAAUGUAUUCGACGAGGAGGAGGUUUAUCGAAUUUUCGGCGGAUGCCUCCAAA was tested, and the “self-cleavage kobs at 40 uM GlcN6P” value (glucosamine-6-phosphate [1]) was 3.38e-05 ± 1.4e-05 s⁻¹ and the “self-cleavage kobs at 10000 uM GlcN6P” value (glucosamine-6-phosphate [5]) was 0.000493 ± 0.00013 s⁻¹.

With AUAAAAGCCCCAGAACUACAGAAAUGUAGUUGACGAGGAGGAGGUUUAUCGAUUUUUCGGCGGAUGCCUCCAAA the “self-cleavage kobs at 40 uM GlcN6P” value (glucosamine-6-phosphate [1]) was less than 1e-05 s⁻¹, the “self-cleavage kobs at 160 uM GlcN6P” value (glucosamine-6-phosphate [2]) was less than 1e-05 s⁻¹ and the “self-cleavage kobs at 640 uM GlcN6P” value (glucosamine-6-phosphate [3]) was less than 1e-05 s⁻¹. For the same variant, the “self-cleavage kobs at 2500 uM GlcN6P” value (glucosamine-6-phosphate [4]) was less than 1e-05 s⁻¹ and the “self-cleavage kobs at 10000 uM GlcN6P” value (glucosamine-6-phosphate [5]) was less than 1e-05 s⁻¹.

AUAAAUUCGACAGAACUACAGAAAUGUAAUUGAAGAGGAGGAGGUUUAUCGAAUUUUCGGCGGAUGGAUCUAAA was tested, and the “self-cleavage kobs at 40 uM GlcN6P” value (glucosamine-6-phosphate [1]) was 9.49e-05 ± 2.1e-05 s⁻¹, the “self-cleavage kobs at 640 uM GlcN6P” value (glucosamine-6-phosphate [3]) was 6.07e-05 ± 1.4e-05 s⁻¹ and the “self-cleavage kobs at 10000 uM GlcN6P” value (glucosamine-6-phosphate [5]) was 3.01e-05 ± 1.4e-05 s⁻¹.

AUAAAAGCGCCAGAACUACAGAAAUGUAGUUGACGAGGACGAUGUUUAUCGAAUUUUCGGCGGAUGCCUACAAA was tested, and the “self-cleavage kobs at 40 uM GlcN6P” value (glucosamine-6-phosphate [1]) was less than 1e-05 s⁻¹ and the “self-cleavage kobs at 10000 uM GlcN6P” value (glucosamine-6-phosphate [5]) was less than 1e-05 s⁻¹.

With AUAAAAGCACCAAAACUACAGAAAUGUAGUUGAGGAGGAGGAGGUUUACCGAAUUUUCGGCGGAUGCUUCCAAA the “self-cleavage kobs at 40 uM GlcN6P” value (glucosamine-6-phosphate [1]) was less than 1e-05 s⁻¹.
